From publication PMC10815921, “Mimicking Protein Kinase C Phosphorylation Inhibits Arc/Arg3.1 Palmitoylation and Its Interaction with Nucleic Acids” (International Journal of Molecular Sciences, 2024) come the findings set out here.

Data set [1] concerns the molecule itself. Kind of data set: dynamic light scattering; ~20 µM, 25 °C, 20 mM HEPES pH 7.5, 100 mM NaCl, 1 mM TCEP; Arc^WT was ammonium sulfate-treated (nucleotide-free).
Data set [2] concerns the molecule itself. Kind of data set: SEC; HiLoad 16/600 Superdex 200, solution B (20 mM HEPES pH 7.5, 100 mM NaCl, 0.5 mM TCEP), 4 °C; proteins prepared without ammonium sulfate treatment (bound nucleic acids kept); loads 25-70 µM. A general note: Size exclusion chromatography separates by hydrodynamic size, large species first.

B1: Arc S84,90E phosphomimetic mutant (natural protein, mouse, UniProt Q9WV31 1-396, looked up)
chain: MELDHMTTGGLHAYPAPRGGPAAKPNVILQIGKCRAEMLEHVRRTHRHLLTEVSKQVERELKGLHRSVGKLENNLDGYVPTGDEQRWKKEIKACLCRCQETIANLERWVKREMHVWREVFYRLERWADRLESMGGKYPVGSEPARHTVSVGVGGPEPYCQEADGYDYTVSPYAITPPPAAGELPEQESVEAQQYQSWGPGEDGQPSPGVDTQIFEDPREFLSHLEEYLRQVGGSEEYWLSQIQNHMNGPAKKWWEFKQGSVKNWVEFKKEFLQYSEGTLSREAIQRELELPQKQGEPLDQFLWRKRDLYQTLYVDAEEEEIIQYVVGTLQPKLKRFLRHPLPKTLEQLIQRGMEVQDGLEQAAEPSGTPLPTEDETEALTPALTSESVASDRTQPE
notes: Arc (Arg3.1), mouse, with serines 84 and 90 mutated to glutamic acid; source: E. coli Rosetta 2, purified (glutathione resin, released with TEV protease); not shown: GST, N-terminal, cleaved
B1: the binding result in data set [1] is given as “binds”.

B2: Arc ΔH1 (aa 33–70 deleted) (natural protein, mouse, UniProt Q9WV31 1-396, looked up)
chain: MELDHMTTGGLHAYPAPRGGPAAKPNVILQIGLENNLDGYVPTGDSQRWKKSIKACLCRCQETIANLERWVKREMHVWREVFYRLERWADRLESMGGKYPVGSEPARHTVSVGVGGPEPYCQEADGYDYTVSPYAITPPPAAGELPEQESVEAQQYQSWGPGEDGQPSPGVDTQIFEDPREFLSHLEEYLRQVGGSEEYWLSQIQNHMNGPAKKWWEFKQGSVKNWVEFKKEFLQYSEGTLSREAIQRELELPQKQGEPLDQFLWRKRDLYQTLYVDAEEEEIIQYVVGTLQPKLKRFLRHPLPKTLEQLIQRGMEVQDGLEQAAEPSGTPLPTEDETEALTPALTSESVASDRTQPE
notes: Arc (Arg3.1), mouse, lacking helix H1 (residues 33-70); Made by PCR from the full-length GST-Arc construct; source: E. coli Rosetta 2, purified (glutathione resin, released with TEV protease; with or without 35% ammonium sulfate precipitation); not shown: GST, N-terminal, cleaved
As to B2, the binding result in data set [2] is listed as “binds”.
